The record followed here is the supplement of paper PMC10567573.

The nature of this data set: protein stability index of a GFP-peptide fusion (GPS, HEK-293T) (PSI 1-6); higher = more stable.
Setting [1] is: treatment: DMSO, c terminus: a fixed tail appended.
[2] abbreviates: treatment: MLN4924 1 uM, 8 h, c terminus: a fixed tail appended.

± gives the standard deviation.
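Note: 24-mer peptide tiles fused after GFP, lentivirally expressed, FACS-sorted into six equal bins by GFP/DsRed ratio, decoded by Illumina sequencing, PSI is the read-weighted mean bin number.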

HALGSPEKVKACQGQYETIERLRS [TBC1D10A]: the protein stability index was 4.03 ± 0.21 under setting [1] and 3.88 ± 0.3 under setting [2].

Consider HDVRLNGSAAGHVLVKDNGLGCKD [TENT5C], for which the protein stability index came to 4.88 ± 0.38 under setting [1] and 4.92 ± 0.16 under setting [2].

In the case of HEEEPLGTAGPLALARDLLSETAD [GMPPB], the protein stability index is, setting by setting: under setting [1], 5.38 ± 0.42; under setting [2], 5.18 ± 0.15.

In turn, HELMLRFKDEYKSENIKLREENEK [CCDC89] displayed a protein stability index under setting [1] of 5.21 ± 0.36 and a protein stability index under setting [2] of 5.29 ± 0.13.

HEVKCQGKPLAGIYRKREEKRNAG [KMT5A] yielded a protein stability index under setting [1] of 4.64 ± 0.55 and a protein stability index under setting [2] of 5.06 ± 0.1.

For the sequence HFDATRGWLLTSGTDKVIKLWDMT [WDFY2], the protein stability index worked out at 2.43 ± 0.3 under setting [1] and 2.78 ± 0.41 under setting [2].

Take HGQENIVRILLRRGVDVSLQGKDA [RIPK4]: the protein stability index under setting [1] worked out at 2.5 ± 0.087 and the protein stability index under setting [2] was 3.13 ± 0.24.

Regarding HLIFSYSVWVLRDFPEDGLKIFTE [VPS39], the protein stability index came to 2.98 ± 0.58 under setting [1] and 3.15 ± 0.54 under setting [2].

HLLEAEPLSPIQASSVHLKSESSL: the protein stability index by setting is: under setting [1], 4.16 ± 0.1; under setting [2], 4.14 ± 0.15.

For the sequence HPNSRKSSAGGAKAGQPESRALAL [ZNF8], the protein stability index is, setting by setting: under setting [1], 4.67 ± 0.36; under setting [2], 4.77 ± 0.16.

As for HRRRSRERGPYRTRKHAHHCHKRR [CLK3], the protein stability index reads like this: under setting [1], 4.49 ± 0.31; under setting [2], 4.57 ± 0.25.

Turning to HRWPPVWYLKEEDHYQRVKREREK [RHOBTB1], the protein stability index reads like this: under setting [1], 3.75 ± 0.34; under setting [2], 4.03 ± 0.28.

Regarding HSCVQIKNDVFICGGYNGEVILGD [KLHDC10], the protein stability index reads like this: under setting [1], 1.94 ± 0.27; under setting [2], 2.62 ± 0.42.

With HSRVAKPHQREKIDKEIELHRILH [PLK2], the protein stability index is, setting by setting: under setting [1], 3.42 ± 0.4; under setting [2], 3.44 ± 0.07.

HSVLQGFIPLFQKFRLTGFRKTD [TMEM40]: the protein stability index by setting is: (treatment: DMSO, c terminus: native) 2.69 ± 0.62; (treatment: MLN4924 1 uM, 8 h, c terminus: native) 2.69 ± 0.43.

HTEVVRDLTFAPDGSLILVSASRD [WSB1]: the protein stability index was determined as 3.45 ± 0.054 under setting [1] and 3.53 ± 0.27 under setting [2].

As for HTKRLYRAVVEAVHRLDLILCNKT [SMG5], the protein stability index by setting is: under setting [1], 2.77 ± 0.36; under setting [2], 2.82 ± 0.65.

Take HVLEGLFRTDPEAKVKLVFVEDQA [ZSWIM9]: the protein stability index reads like this: under setting [1], 2.51 ± 0.19; under setting [2], 2.74 ± 0.24.

Consider HVQKLSQECLKQLAIKKQQHIDNI [TRIM14], for which the protein stability index was 3.81 ± 0.36 under setting [1] and 3.75 ± 0.12 under setting [2].

HVTDPLIGCKKPVSASGKEMDWAQ [SMG5] registered a protein stability index under setting [1] of 3.78 ± 0.18 and a protein stability index under setting [2] of 4.04 ± 0.24.

Turning to HVTVVILFFVPCIFLYARPNSTFP [OR4A15], the protein stability index reads like this: under setting [1], 2.83 ± 0.9; under setting [2], 2.77 ± 0.51.

With IAKHLKGRLGKQCRERWHNHLNPE [MYBL2], the protein stability index turned out to be 2.25 ± 0.21 under setting [1] and 2.23 ± 0.13 under setting [2].

ICKEVQAEQEPTRKLFEVESVTHH [SPAG8]: the protein stability index under setting [1] worked out at 4.47 ± 0.12 and the protein stability index under setting [2] stood at 4.77 ± 0.07.

Turning to IDCKFNAESQGCNHEEDAGVRCNT [LOXL2], the protein stability index by setting is: under setting [1], 5.13 ± 0.22; under setting [2], 5.22 ± 0.1.

As to IDFIGQVHKTKEQFGQDGPISVHC [PTPRD], the protein stability index by setting is: under setting [1], 2.5 ± 0.26; under setting [2], 2.81 ± 0.22.

In the case of IDGKGRGVIATKQFSRGDFVVEYH [KMT5A], the protein stability index is, setting by setting: under setting [1], 2.91 ± 0.26; under setting [2], 3.03 ± 0.35.

As for IDYYTETKILQERAVLGANDPEKN [NSDHL], the protein stability index reads like this: under setting [1], 4.76 ± 0.22; under setting [2], 5.02 ± 0.46.

Turning to IEFNPRIGKWFDFKLFFNGRPGIV [DHCR7], the protein stability index reads like this: under setting [1], 2.63 ± 0.44; under setting [2], 2.91 ± 0.91.

For the sequence IGVILFSSAVYFAEADEPTTHFQS [KCNA4], the protein stability index by setting is: under setting [1], 2.36 ± 0.58; under setting [2], 2.69 ± 1.
